Results as given in patent US20110091971A1, “Differentiation of Pluripotent Stem Cells” (priority 2008, published 2011).
“And” between values parts separate entries of the source, which are not always exact repeats. Identical values can stand only once.

Test system: H1 or H9 human embryonic stem cells
Assay: Activin A bioassay: differentiation of human embryonic stem cells to definitive endoderm, cell number and SOX17 intensity by high content analysis (96-well, four days);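 as to Cell Number average: Raw total cell count per well from high content imaging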;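 as to Sox 17 Intensity average: total fluorescence of the cell multiplied by cell area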
Assay type: cell-based
Conditions: for Sox 17 Intensity % of control: control = R&D Sys Activin A 100 ng/ml on same plate
Excerpt: Activin A is an important mediator of differentiation in a broad range of cell types. […] A bioassay that measures this differentiation in human embryonic stem cells was adapted in miniaturized format to 96-well plates for screening purposes. Validation was completed using treatment with commercial sources of activin A and Wnt3a recombinant proteins and measuring protein expression of the transcription factor SOX17, which is considered a representative marker of definitive endoderm.
Live Cell Assay: Briefly, clusters of H1 or H9 human embryonic stem cells were grown on growth factor-reduced MATRIGEL™ (Invitrogen; Cat #356231)-coated tissue culture plastic. Cells were passaged using collagenase (Invitrogen; Cat # Cat #17104-019) treatment and gentle scraping, washed to remove residual enzyme, and plated in a ratio of 1:1 (surface area) on growth factor-reduced MATRIGEL™-coated 96-well plates (black, 96-well; Packard ViewPlates; Cat #6005182). Cells were allowed to attach as clusters and then recover log phase growth over a 1 to 3 day period, feeding daily with MEF conditioned medium supplemented with 8 ng/ml bFGF (R&D Systems; Cat #233-FB).
The assay was initiated by washing the wells of each plate twice in PBS and followed by adding an aliquot (100 μl) of test sample in DMEM:F12 basal medium (Invitrogen; Cat #11330-032) to each well. Test conditions were performed in triplicate, feeding […] by aspirating and replacing the medium from each well with test samples over a total four day assay period. On the first and second day of assay, test samples added to the assay wells were diluted in DMEM:F12 with 0.5% FCS (HyClone; Cat #SH30070.03) and 20 ng/ml Wnt3a (R&D Systems; Cat #1324-WN). On the third and fourth day of assay, test samples added to the assay wells were diluted in DMEM:F12 with 2% FCS, without any Wnt3a. Positive control samples consisted of recombinant human activin A (Peprotech; Cat #120-14) added at a concentration of 100 ng/ml throughout assay plus Wnt3a (20 ng/ml) on days 1 and 2. Negative control samples omitted treatment with both activin A and Wnt3a.
High Content Analysis: At the conclusion of four days of culture, assay plates were washed twice with PBS, fixed with 4% paraformaldehyde at room temperature for 20 minutes, then washed three times with PBS and permeabilized with 0.5% Triton X-100 for 20 minutes at room temperature. Cells were washed again three times with PBS and blocked with 4% chicken serum (Invitrogen; Cat #16110082) in PBS for 30 minutes at room temperature. Primary antibody (goat anti-human SOX17; R&D Systems; cat #AF1924) was diluted 1:100 in 4% chicken serum and added to each well for one hour at room temperature. Alexa Fluor 488 conjugated secondary antibody (chicken anti-goat IgG; Molecular Probes; Cat #) was diluted 1:200 in PBS and added to each sample well after washing three times with PBS. To counterstain nuclei, 4 μg/ml Hoechst 33342 (Invitrogen; Cat #H3570) was added for ten minutes at room temperature. Plates were washed once with PBS and left in 100 μl/well PBS for imaging.
Imaging was performed using an IN Cell Analyzer 1000 (GE Healthcare) utilizing the 51008bs dichroic for cells stained with Hoechst 33342 and Alexa Fluor 488. Exposure times were optimized from positive control wells and from untreated negative control wells stained with secondary antibody alone. Images from 15 fields per well were acquired to compensate for any cell loss during the bioassay and subsequent staining procedures. Measurements for total cell number and total SOX17 intensity were obtained from each well using IN Cell Developer Toolbox 1.7 (GE Healthcare) software. Segmentation for the nuclei was determined based on grayscale levels (baseline range 100-300) and nuclear size. Averages and standard deviations were calculated for each replicate data set. […]

[1] = supernatant concentration 1x, assay dilution 1:20
[2] = supernatant concentration 10x, assay dilution 1:20
[3] = supernatant concentration 10x, assay dilution 1:20, assay plates #007, #009, #010
[4] = supernatant concentration 10x, assay dilution 1:40
[5] = supernatant concentration 50x, assay dilution 1:20, assay plates #008, #009

| Molecule | Cell Number average [1] | Sox 17 Intensity average [1] | Sox 17 Intensity % of control [1] [%] | Cell Number average [2] | Sox 17 Intensity average [2] | Cell Number average [3] | Sox 17 Intensity average [3] | Sox 17 Intensity % of control [2] | Cell Number average [4] | Sox 17 Intensity average [4] | Sox 17 Intensity % of control [4] [%] | Cell Number average [5] | Sox 17 Intensity average [5] | Sox 17 Intensity % of control (supernatant concentration 50x, assay dilution 1:20) [%] |
| --- | --- | --- | --- | --- | --- | --- | --- | --- | --- | --- | --- | --- | --- | --- |
| ACTN57: activin A variant peptide, SEQ ID 58 (protein) GLECDGKVNICCKKQSFGQAKDIGWNDWIIAPSGYHGGGCSGECPSHIAGTSGSSLSFHSTVINHYRMRGHSPWANLKSCCSPTKLRPMSMLYYDDGQNIIKKDIQNMKVEECGCT | 4485 | 9.99E+05 | 3.4 | 6471 | 1.74E+06 | 9442 | 1.70E+06 | 5.9% and 6.8% | 4594 | 1.30E+06 | 4.4 | 12697 | 7.82E+06 | 31.4 |
| ACTN64: activin A variant peptide, SEQ ID 65 (protein) GLECDGKVNICCKKQSFGQTKDIGWNDWIIAPSGYHGGGCSGECPSHIAGTSGSSLSFHSTVINHYRMRGHSPWANLKSCCSPTKLRPMSMLYYDDGQNIIKKDIQGMVVEECGCT | 2415 | 1.30E+06 | 4.4 | 2215 | 1.55E+06 | – | – | 5.2% | 2688 | 1.12E+06 | 3.8 | – | – | – |
| ACTN76: activin A variant peptide, SEQ ID 77 (protein) GLECDGKVNICCKKQLFGQTKDIGWNDWIIAPSGYHGGGCSGECPSHIAGTSGSSLSFHSTVINHYRMRGHSPNANLKSCCSPTKLRPMSMLYYDDGQNIIKKDIQGMKVEECGCT | 3613 | 9.19E+05 | 4.0 | 4732 | 1.43E+06 | – | – | 6.2% | 7608 | 7.54E+05 | 3.3 | – | – | – |
| ACTN71: activin A variant peptide, SEQ ID 72 (protein) GLECDGKVNICCKKQSFGQAKDIGWNDWIIAPSGYHGGGCTGECPSHIAGTSGSSLSFHSTVINHYRMRGHSPFANLKSCCSPTKLRPMSMLYYDDGQNIIKKDIQNMKVEECGCT | 1621 | 2.45E+05 | 0.8 | 3909 | 3.61E+05 | – | – | 1.2% | 1970 | 1.01E+06 | 3.4 | – | – | – |
| ACTN62: activin A variant peptide, SEQ ID 63 (protein) GLECDGKVNICCKKQSFGQAKDIGWNDWIIAPSGYHGGGCTGECPSHIAGTSGSSLSFHSTVINHYRMRGHSPWANLKSCCSPTKLRPMSMLYYDDGQNIIKKDIQNMVVEECGCT | 1661 | 1.05E+06 | 3.6 | 5728 | 2.45E+05 | – | – | 0.8% | 3782 | 1.33E+06 | 4.5 | – | – | – |
| ACTN63: activin A variant peptide, SEQ ID 64 (protein) GLECDGKVNICCKKQSFSQAKDIGWNDWIIAPSGYHGGGCTGECPSHIAGTSGSSLSFHSTVINHYRMRGHSPFANLKSCCSPTKLRPMSMLYYDDGQNIIKKDIQGMVVEECGCT | 3380 | 1.07E+06 | 3.6 | 1935 | 2.28E+06 | – | – | 7.7% | 2718 | 2.01E+06 | 6.8 | – | – | – |
| ACTN75: activin A variant peptide, SEQ ID 76 (protein) GLECDGKVNICCKKQSFGQAKDIGWNDWIIAPSGYHGGGCSGECPSHIAGTSGSSLSFHSTVINHYRMRGHSPWANLKSCCSPTKLRPMSMLYYDDGQNIIKKDIQRMKVEECGCT | 2873 | 1.81E+05 | 0.8 | 3867 | 3.91E+05 | – | – | 1.7% | 3641 | 1.24E+06 | 5.4 | – | – | – |
| ACTN79: activin A variant peptide, SEQ ID 80 (protein) GLECDGKVNICCKKQSFGQAKDIGWNDWIIAPSGYHGGGCTGECPSHIAGTSGSSLSFHSTVINHYRMRGHSPWANLKSCCSPTKLRPMSMLYYDDGQNIIKKDIQRMVVEECGCT | 2958 | 4.07E+05 | 1.8 | 7704 | 3.83E+05 | – | – | 1.7% | 2486 | 6.19E+04 | 0.3 | – | – | – |
| ACTN59: activin A variant peptide, SEQ ID 60 (protein) GLECDGKVNICCKKQLFGQTKDIGWNDWIIAPSGYHGGGCTGECPSHIAGTSGSSLSFHSTVINHYRMRGHSPNANLKSCCAPTKLRPMSMLYYDDGQNIIKKDIQGMKVEECGCV | 2613 | 1.09E+06 | 3.7 | 3304 | 2.11E+06 | – | – | 7.1% | 1776 | 1.81E+06 | 6.1 | – | – | – |
